Results published in publication PMC8378821.

Tests used:
[1] = target: Mycobacterium smegmatis MSMEG_6251 soluble domain (msTiME-SD) (M. smegmatis mc^2155); assay: crystal structure
[2] = target: Mycobacterium tuberculosis Rv3705c soluble domain (mtTiME-SD) (M. tuberculosis H37Rv); assay: SEC-MALS

Substance | stoichiometry N [1] | stoichiometry N [2]
Mycobacterium smegmatis MSMEG_6251 soluble domain (msTiME-SD) (domain or fragment) | 8 | –
Mycobacterium tuberculosis Rv3705c soluble domain (mtTiME-SD) (domain or fragment) | – | 16
